Assay: soluble on expression in E. coli; label from the status in PepcDB or PDB records

Sequence | soluble on expression in E. coli
MKKEIIVYTISDSLGETSQKLLAAASAQYPDISFLNRYNFSFVTTEEELLEILKDALKDKALVVSTLVSKQLITAAKEFSERTGLLYLDLMAPFFELIQAKAGVDPIEEPGRRHQLDRAYFDKISAIEFAVKYDDGKNPQGFLDSDILLLGVSRTSKTPVSMYLANQGYRVSNLPLIPEVPLPPILEEMDPQKMIGLVCSPETLGQIRSSRLASLGLGNETSYTNVERIEQELAYAEEIFAKYGIPVIDVTAKSVEETAFLIKEKLDERNLEHHHHHH | soluble
MSPAPELQIPTVTRQSDGTKIHEISGHKFKAVGLAQPTFCSFCSKFIYGVGKQGYKCLGCETVVHKRCHALITARCTFGPSSRAPVPAETTNLKTRRSRSASEEPPSNTHHFNKHFFTRPTFCDHCGSMLYGLTKQGVQCTDCHANVHFRCQEKVLRNCGIQCQ | not soluble
MIMIFTSSCCDNLSIDEIIERAEKGDCEAQYIVGFYYNRDSAIDSPDDEKAFYWLKLAAEQGHCEAQYSLGQKYTEDKSRHKDNEQAIFWLKKAALQGHTFASNALGWTLDRGEAPNYKEAVVWYQIAAESGMSYAQNNLGWMYRNGNGVAKDYALAFFWYKQAALQGHSDAQNNLADLYEDGKGVAQNKTLAAFWYLKSAQQGNRHAQFQIAWDYNAGEGVDQDYKQAMYWYLKAAAQGSVGAYVNIGYMYKHGQGVEKDYQAAFEWFTKAAECNDATAWYNLAIMYHYGEGRPVDLRQALDLYRKVQSSGTRDVSQEIRETEDLLLEHHHHHH | not soluble
MLQRSVFFLSDRTGITAETLGHSLLTQFDGIEWKKHYASFLDSAAKAQAVIEQINTIAEQEGQPALVFSTLLDPVMLASIRRADCVLFDFFETCLGTLEAVLQQPPARIPGRSHVLRQDASYFRRIAAIQYALNSDDGANAKILADADVIVVGVSRTGKTPVCVYLALQYGVLAANYPFTPEDMGAIQLPPLLQPLRKKLFGLTLNTSRLQSIREERYPGSHYASFAECQRELQWQNELYRQFDIPSINTTDVSIEEISASIVNRAHLERRQHGTLEHHHHHH | not soluble
QMFWPLQPVQLSLANVFLALANYLDAKAKLFHPVTNLAPQPMRIEAARLNAATVTALNACKATLLTRSKRGHVDGPSDRFLNIYFIAQDIHERVSSSHYRYQDLATEFERSDVLFRFKYLLETQAQACRDIAQAIQLGNEYTHTDESILALAELQNSLAYLEEQQQGHWKRLLMQLTYLFNNLATVEKQLNNINNPDAERLEEDTLADTNPHTLKAMWQRISANLHKDSMLFRH | not soluble
MKLNIKDVVLNYNIIGEGEPIIILHGYSVDHTIMFGCMENLFSDESRYKRIYVDLPGMGKSTSSDSIKTSDNMLDIILEFIMKVTKGENFLLVGESYGGYLSRGVVYKIREKVNGLFLICPAIIPDFNKRTVPEHVILAYDEKLMSKLNKEEAEEFSSMSVVQNEKIYLRFKEEVMSGIKLGNQDFLERLQREGYGFSFDVDKLPQKFDKPTLMLLGKQDASVGYKDAWNILDNYPRATFAVLDMAGHNLQIEQEDIFNLLGKEWISRTYREKDY | not soluble
MPVTLSFGNRHNYEINHSRLARLMSPDKEEALYMGVWDRFKDCFRTHKKQEVLEVLYTLIHGCERENQAELNVDITGMEKIHAFTQLKEYANPSQQDRFVMRFDMNQTQVLFEIDGKVIDKCNLHRLLNVSENCIFKVMEEDEEELFLKICIKYGEKISRYPELLEGFANKLKDAVNEDDDVKDEVYKLMRSGEDRKMECVEWNGTLTEEEKNKLRCLQMGSFNITTQFFKIGYWELEGEVLFDMVHPTLSYLLQAYKPSLSSDLIETNTMLFSDVLNKDYDDYQNNKREIDAILRRIYRSHNNTLFISEKSSCRNMLI | not soluble
MGKKRKHQDSDSEQSGKRVKKVEEARNGVADMTIDESSDFQVFLIKKPIGVSLEDLEALKWSNDEEVLTKTKLKTESGVFRAIVAPKSKKERMVHIPAFREREEADSKNIKAQSFVTGAITILPQEVKPKVLGGFIYEEGEEPVEGSSEVHPGLKKIKKTAILDLESRQQRNKAYGTTTEGDGKPRKLANIIEKMN | soluble
RLIRSVLCSSSAGFGQGFCSPSLRRHLSARFPRGHGNALANFSSCARSRVHAYSSASSATSVGVPVAKMRFIDIGANLLDEMYTGQYNDKPYHPPDLSAVLERAWAAGLEKLMITAGSLKEARAALELAKTDERLYCTVGCHPTRCKEFEDHPGGPEAYLQELLEVLKEGQALGKVVAVGECGLVATDYERLHFCDADTQKKYFEAQFRLAKESGLPMFLHLRAAADDFLDITGRHLGDFPRGGVVHSFDGTAEEAARVLAVPQLAIGINGCSLKTDDNLAVVGGLPLERIMLETDCPWCEIRPTHAGRKHVSAEALAGVTGAKDRKKFMPGCQVKS | not soluble
MSLAQVEQVIQVGHLLDVRTGNYQKNKAILVEAGRISAIVDADQAPKNVQVIDLSTHYVVPGLIDMHVHLTSDPQKHGYRGLVETPTREAIFGVSAAKATLKAGFTTVRNLGAAGFADVSLRDAIDDGEIQGPRMRVAANTICITGGHCDNNLLPHIYNSRSAGVANGPDEVRAKVRENIKYGADVIKFAATGGVLSKNTDVNASQYNFEEMKALIDEAHDRGRIVAAHAHGLQGIKRAIEAGVDSIEHGSFIDDDAIKLAKKHGTYLVMDVYVSDYILSEGEKAGILPESLAKEKKVGLLQRQNFQKAVKAGVKMAYGTDAGVYTHGLNGRQFAYMVQWGMTPLQAIQAATVNAGTLLNWKNEQGQQNVGVLEVGAFADLVAVPVDPLTQEGHHHHHH | soluble
MNKPLTPSTYIRNLNVGILRKLSDFIDPQEGWKKLAVAIKKPSGDDRYNQFHIRRFEALLQTGKSPTCELLFDWGTTNCTVGDLVDLLVQIELFAPATLLLPDAVPQTVKSLPP | soluble
MKKEPLFVALSNQKGGVGKSTLTVLLASYFHYHKAKNVLVVDCDYPQHSMMTLREWDIKNVEKTPRLQSLLVEQFGDTGRKAYNILASMPEQAKETAYGFIDRSDTEYDLVLLDLPGTVNTTGVFQSIINMDYVFTPITQERMVMQSSMSFVLSIREYLLHHKGVPLRDIHMFWNKMDKRVSRDLYDAYMEIIRSLGLPVLNTVLPAAERYKKDVGLNGQIFRSTLFPPSAAALKGSNFDLLAAEMETILGL | not soluble
MIDMFHINIPFKKDVIIEMGDCGFVDFAKLAEKTELKIACGNVEFSVVNDQKKVRTDDLYHPWSTIPSSYTDIACKVFDAEPRANVFWGYLQLKASPAKVMQGHNVYGSEDFRLCVEYLLDSLQKAQPELWELLDVGLAEMTRIDCTYSIKCANPDILRQTIKQMGNVSNRYIKPARNSDFETTLYFNRATKANPGAGRSFELCIYTKHDEIAHQLADLKRRARQGDSDRFNRIIDELSKPELQAFAANRLRFEGRAKKRFIQKHVGSANLWQVIRHAEQFEAKNGYRFCEWMFKTLFHDLLESLKGEELELYNDSKIKQLLRDAYSTMTPKLEHHHHHH | soluble
MAHHHHHHMSDDIMNGDTLSEYRKIHKKNYEERIIKENELIEKQKTEELLNEKKKNEEIYRQLQIDKDREYSKQCYYEINNFQNIHERTYNDSDIRENYTQRLINPSAYSYIDNNMTQNLLDGDMGYTFSQRIRRFFLNK | not soluble
MKIDILTLFPDMFTGVFGSSILKKAQEKEAVELRVVNFRDYTTSKHNSVDDYPYGGGAGMVLTPQPIFDAVEDLTKETERKPRVVLMCPQGERFTQKKAEELAEEEHLIFVCGHYEGYDERIREHLVTDEISIGDYVLTGGELASMVITDSVVRLLPGVLGNHASQVEDSFSTGLLEHPHYTRPADFRGMKVPDVLMSGNHKNIDEWRHKESLRRTYTRRPDLLEERELSKQEKKWLEQIKEGK | not soluble
GMKVLPVKQYLIMENYNPDTIFNGIVKINSNEKTFDDEILAQIGGALHDIDESWELLLSFANTIRSNWEIKTPAYDIVRLIVKKLPYSSDIKDYIEEGLGNKNITLTMLTVRILVNCFNNENWGVKLLESNQVYKSIFETIDTEFSQASAKQSQNLAIAVSTLIFNYSALVTKGNSDLELLPIVADAINTKYGPLEEYQECEEAAYRLTVAYGNLATVEPTLRQFANSVTWLANIKRSYGNVPRFKDIFDDLS | soluble
MDIPQTKQDLELPKLAGTWHSMAMATNNISLMATLKAPLRVHITSLLPTPEDNLEIVLHRWENNSCVEKKVLGEKTENPKKFKINYTVANEATLLDTDYDNFLFLCLQDTTTPIQSMMCQYLARVLVEDDEIMQGFIRAFRPLPRHLWYLLDLKQMEEPCRF | soluble
MPLEASELKPTAGPLEASELKPTAGPLEASELKPTAGPLEASELKPTAGPLEASELKPTAGPLEASELKPTAGPLEASELKPTAGMFKNAKEFVQYANKLKTLREKKLNGVSIYVCVGTGCTAKGALKVYSAFEEELKKRNLLGQVTLEKIDDDKVTLNRTGCCGRCSSGPLVKIMPYRFFYSNVAPEDVPEIVDRTVLKGEPIERLFLTDPLTGEKVPRIEDTTLFKNQDFYIMEAIGESECDSIEDYIARSGYESLVKALTSMTPEEIIETVKASGLRGRGGGGFPTGLKWEFTRKAQGDIKFVVCNGDEGDPGAFMNRTLLERDPHLVLEGMIIAGYAVGAQKGYAYIRAEYPFAVKMFKKAIEDARKLGLLGENILGTGFSFDLEVKEGAGAFVCGEETALLASIEGKRGMPRPKPPFPAQSGLWGKPTLINNVETYANIPRILRDGVENYRKRGTENSPGTKMFSVAGPLKATGIIEVEFGTTLRDIIYNICGGFVEGEEFKAVQIGGPSGACLSEDFIDMPLDYDTLKKADAMVGSGGIVVITKKTCMVEVARFFLDFTKRESCGKCVPCREGTMQAYNILEKFTHGKATYEDLKTLEHLSKTIKTASLCGLGKTAPNPILSTLKLFREEYIAHIEGECPSGMCTAFKKYVINPDICKGCGLCARSCPQNAITGERGKPYTIDQEKCVKCGLCASKCPFKAIELVAAALEHHHHHH | not soluble
MGSDKIHHHHHHLRTNTVKVALVGCGRIAGHHARSIVATDGVQLAAVCDLAEDKALAYSNEFGVPSYTDYRRMLAEHPEISVVAVITPSGMHSEHGLEMMERFGKHIILEKPTMMRPEQLVHAWGVADRLNLSIFPVFQNRHNKAVTRVRQALAAGELGEIRIMSVRVRWCRPQRYYDLAPWRGTFSHDGGALTNQGIHHVDLLRHLGGEVDQVSATMRTLGADIEVEDTVVATMRYRSQAVGVLEVTTAARPDDFEASISIVGEKGLAQIGGIAVNELQVFTPDPAACAANSEDFKSFEGNGAVYGFGHSQMYRDIAAHFHQGKAYPVSREDCLGTLKLLHAFYRSDEAAGGWVDVDSPEQSTRLGRPDDAISNLYRTPLHG | not soluble
MGSDKIHHHHHHMLDQAERLRNMALKKNAGEEIKRPVIITVTSGKGGVGKSNFVVNLSITLQQMNKKVLIFDADVGMGNDDILLGCISKYSVFDVIYNNMKIEDAIVEGPFGVKLLPGGSGITKFKDITEDQINAFVKKLASIGNFDYIIMDTGAGVNRSVLGFISCCEELIILTTPEPTSLTDAYSLFKAVVHFKIKSYAKVVINRVVDNKEGLETYKKFQSVAKKFLKADTEFLGSISEDSRIVKAVRNQTPFVVENPNCYAAKDIQYIANKLMGTTTKDNGLGIEGLFKKLFKIFS | not soluble
MSLTKFVSAPLICGLALLGALSAAHAQTGIPALPPIAQPLPVPAPAPVTPPAPTVPVPQEPAPVPQPPMPQPSVPQTPAPQKPVTPRPAPAPSRAPLLIQARANVPALVAGKKTTVPVLKTLTIPAERAAQLRQRGEVSASLQADLDTFLKSLAAPRDARFEQQDDGQWAVVQPNGLKVDAQATRAAVAKVLRDPRGVSANVVVTGQVAPQRTLDFFASRGITTFLATGFTSYYGSSPERVKNIHVGAQNFKDRLFEGDVFSFNKFIGPVSERNGYVPGLVIAGDQTASGVGGGICQVSTTVFRTLYGAGLGIVQRQNHSYQVFYYDPQGLDATIYQPQLDLKFANTTGGPIWFQTEWDDQEATLTITAFGQARDYQVQVDAPKTLKTVAPPKDRLIPDASLPAGQRKQVDWAAPGATIEVTRRFTRGGKTFKQDTLRSVYRPWPNIFRVGTKKEGGSHHHHHH | soluble

— the DeepSol protein solubility set
